Reference: PMC9223585, “Structural and Functional Insights into CP2c Transcription Factor Complexes” (International Journal of Molecular Sciences, 2022)

Target: the molecule itself
Assay: cross-linking + co-IP; DSP XL-WB: nuclear extracts of MDA-MB-231 cells, Benzonase, 2 mM DSP 30 min at room temperature, IP with CP2c, CP2b or PIAS1 antibodies, sequential Western blot with and without DTT

B1: CP2c (TFCP2), endogenous human (natural protein, human (endogenous in MDA-MB-231), UniProt Q12800-1 1-502, looked up)
chain: MAWALKLPLADEVIESGLVQDFDASLSGIGQELGAGAYSMSDVLALPIFKQEESSLPPDNENKILPFQYVLCAATSPAVKLHDETLTYLNQGQSYEIRMLDNRKLGELPEINGKLVKSIFRVVFHDRRLQYTEHQQLEGWRWNRPGDRILDIDIPMSVGIIDPRANPTQLNTVEFLWDPAKRTSVFIQVHCISTEFTMRKHGGEKGVPFRVQIDTFKENENGEYTEHLHSASCQIKVFKPKGADRKQKTDREKMEKRTPHEKEKYQPSYETTILTECSPWPEITYVNNSPSPGFNSSHSSFSLGEGNGSPNHQPEPPPPVTDNLLPTTTPQEAQQWLHRNRFSTFTRLFTNFSGADLLKLTRDDVIQICGPADGIRLFNALKGRMVRPRLTIYVCQESLQLREQQQQQQQQQQKHEDGDSNGTFFVYHAIYLEELTAVELTEKIAQLFSISPCQISQIYKQGPTGIHVLISDEMIQNFQEEACFILDTMKAETNDSYHIILK
notes: transcription factor CP2c (TFCP2, LBP-1c), endogenous in the human breast cancer line MDA-MB-231; both are human cells; also called α-CP2; LSF; source: endogenous, MDA-MB-231 nuclear and cytosolic lysate
For B1, the “stoichiometry N” value was 4.
